The values that follow come from IntAct's records for PubMed 20531387.

B1: Centrosomal P4.1-associated protein (Homo sapiens), Q9HC77 (parent)
chain: MFLMPTSSELNSGQNFLTQWMTNPSRAGVILNRGFPILEADKEKRAAVDISTSFPIKGTHFSDSFSFINEEDSLLEEQKLESNNPYKPQSDKSETHTAFPCIKKGPQVAACHSAPGHQEENKNDFIPDLASEFKEGAYKDPLFKKLEQLKEVQQKKQEQLKRQQLEQLQRLMEEQEKLLTMVSGQCTLPGLSLLPDDQSQKHRSPGNTTTGERATCCFPSYVYPDPTQEETYPSNILSHEQSNFCRTAHGDFVLTSKRASPNLFSEAQYQEAPVEKNNLKEENRNHPTGESILCWEKVTEQIQEANDKNLQKHDDSSEVANIEERPIKAAIGERKQTFEDYLEEQIQLEEQELKQKQLKEAEGPLPIKAKPKQPFLKRGEGLARFTNAKSKFQKGKESKLVTNQSTSEDQPLFKMDRQQLQRKTALKNKELCADNPILKKDSKARTKSGSVTLSQKPKMLKCSNRKSLSPSGLKIQTGKKCDGQFRDQIKFENKVTSNNKENVTECPKPCDTGCTGWNKTQGKDRLPLSTGPASRLAAKSPIRETMKESESSLDVSLQKKLETWEREKEKENLELDEFLFLEQAADEISFSSNSSFVLKILERDQQICKGHRMSSTPVKAVPQKTNPADPISHCNRSEDLDHTAREKESECEVAPKQLHSLSSADELREQPCKIRKAVQKSTSENQTEWNARDDEGVPNSDSSTDSEEQLDVTIKPSTEDRERGISSREDSPQVCDDKGPFKDTRTQEDKRRDVDLDLSDKDYSSDESIMESIKHKVSEPSRSSSLSLSKMDFDDERTWTDLEENLCNHDVVLGNESTYGTPQTCYPNNEIGILDKTIKRKIAPVKRGEDLSKSRRSRSPPTSELMMKFFPSLKPKPKSDSHLGNELKLNISQDQPPGDNARSQVLREKIIELETEIEKFKAENASLAKLRIERESALEKLRKEIADFEQQKAKELARIEEFKKEEMRKLQKERKVFEKYTTAARTFPDKKEREEIQTLKQQIADLREDLKRKETKWSSTHSRLRSQIQMLVRENTDLREEIKVMERFRLDAWKRAEAIESSLEVEKKDKLANTSVRFQNSQISSGTQVEKYKKNYLPMQGNPPRRSKSAPPRDLGNLDKGQAASPREPLEPLNFPDPEYKEEEEDQDIQGEISHPDGKVEKVYKNGCRVILFPNGTRKEVSADGKTITVTFFNGDVKQVMPDQRVIYYYAAAQTTHTTYPEGLEVLHFSSGQIEKHYPDGRKEITFPDQTVKNLFPDGQEESIFPDGTIVRVQRDGNKLIEFNNGQRELHTAQFKRREYPDGTVKTVYANGHQETKYRSGRIRVKDKEGNVLMDTEL
B2: Centrosomal P4.1-associated protein (Homo sapiens), Q9HC77 (parent)
chain: B1 chain
partner: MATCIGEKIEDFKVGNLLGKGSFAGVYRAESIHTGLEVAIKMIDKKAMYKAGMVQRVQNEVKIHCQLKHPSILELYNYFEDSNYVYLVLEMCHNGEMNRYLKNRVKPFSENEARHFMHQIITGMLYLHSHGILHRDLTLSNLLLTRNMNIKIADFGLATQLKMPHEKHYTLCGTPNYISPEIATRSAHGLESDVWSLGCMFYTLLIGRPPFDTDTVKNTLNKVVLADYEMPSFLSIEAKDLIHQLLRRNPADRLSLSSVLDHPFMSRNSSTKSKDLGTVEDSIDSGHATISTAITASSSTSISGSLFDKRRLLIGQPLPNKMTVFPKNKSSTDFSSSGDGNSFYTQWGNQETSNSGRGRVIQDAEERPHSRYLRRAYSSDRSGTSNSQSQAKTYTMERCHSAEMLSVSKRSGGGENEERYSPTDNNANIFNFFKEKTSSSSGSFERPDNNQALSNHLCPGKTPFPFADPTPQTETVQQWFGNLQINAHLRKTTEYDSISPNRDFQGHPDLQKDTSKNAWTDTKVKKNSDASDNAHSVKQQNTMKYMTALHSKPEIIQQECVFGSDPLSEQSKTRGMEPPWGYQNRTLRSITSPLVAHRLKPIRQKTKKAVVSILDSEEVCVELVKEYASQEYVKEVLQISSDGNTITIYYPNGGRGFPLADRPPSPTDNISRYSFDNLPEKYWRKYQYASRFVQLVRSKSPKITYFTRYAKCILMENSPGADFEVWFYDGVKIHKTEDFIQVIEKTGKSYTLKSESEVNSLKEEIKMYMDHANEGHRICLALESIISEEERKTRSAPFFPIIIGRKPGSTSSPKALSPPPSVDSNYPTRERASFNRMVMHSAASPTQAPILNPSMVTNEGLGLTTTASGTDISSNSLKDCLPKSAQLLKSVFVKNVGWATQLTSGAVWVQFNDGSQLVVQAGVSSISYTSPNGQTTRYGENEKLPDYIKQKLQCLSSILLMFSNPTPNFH

Variants of B1 are the subject of the first experiment. Conditions: with plk2_human PLK2, Q9NYY3.
Chain of plk2_human PLK2, Q9NYY3 (Q9NYY3 whole entry, looked up): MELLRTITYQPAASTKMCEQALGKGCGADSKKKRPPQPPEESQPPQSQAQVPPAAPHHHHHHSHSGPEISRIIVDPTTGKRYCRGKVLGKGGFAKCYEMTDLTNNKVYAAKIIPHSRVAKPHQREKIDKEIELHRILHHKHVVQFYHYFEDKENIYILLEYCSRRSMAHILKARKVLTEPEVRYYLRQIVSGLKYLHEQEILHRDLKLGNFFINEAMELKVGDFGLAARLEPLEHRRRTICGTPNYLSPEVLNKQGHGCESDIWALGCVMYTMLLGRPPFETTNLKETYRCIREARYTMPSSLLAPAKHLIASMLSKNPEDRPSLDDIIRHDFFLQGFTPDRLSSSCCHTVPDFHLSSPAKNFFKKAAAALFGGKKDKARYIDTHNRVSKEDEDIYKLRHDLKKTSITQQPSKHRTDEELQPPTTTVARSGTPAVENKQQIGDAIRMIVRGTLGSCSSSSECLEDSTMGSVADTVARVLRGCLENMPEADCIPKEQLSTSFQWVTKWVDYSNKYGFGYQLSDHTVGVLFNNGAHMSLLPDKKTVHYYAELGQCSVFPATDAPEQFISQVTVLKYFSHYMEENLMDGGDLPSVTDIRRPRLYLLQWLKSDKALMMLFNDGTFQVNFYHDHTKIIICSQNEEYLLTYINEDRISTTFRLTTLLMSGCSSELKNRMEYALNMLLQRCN
For S589A, the “effect of a mutation on the interaction” value is “decreasing interaction”.

Variants of B1 are the subject of a further experiment. The settings on record: with plk2_human PLK2, Q9NYY3. The source holds these as a separate data set.
As for S589A, the “effect of a mutation on the interaction” value is given as “disrupting interaction”.
On the same count and under the same terms, the result for S595A reads “disrupting interaction”.

Another experiment covers variants of B1. Conditions: with plk2_human PLK2, Q9NYY3. This is another data set of the same source.
Consider S595A, for which the “effect of a mutation on the interaction” value is recorded as “decreasing interaction”.

Variants of B2 are the subject of the next experiment. The settings on record: with plk4_human PLK4, O00444.
Regarding S595A, the “effect of a mutation on the interaction” value is listed as “disrupting interaction”.
On the same count and under the same terms, next, S589A: “disrupting interaction”.
